Measured values as given in patent US7935785B2, “Selective substrates for matrix metalloproteinases” (Sanford-Burnham Medical Research Institute, priority 2001, dated 2011).

Tests used:
Type in all cases: biochemical
MMP-9 = target: T1, MMP-9 (Homo sapiens, UniProt P14780); experiment: Peptide substrate hydrolysis kinetics, fluorescamine incorporation assay (kcat, Km, kcat/Km, selectivity ratio); conditions: for selectivity ratio: kcat/Km for MMP-9 divided by kcat/Km for MMP-1 / selectivity ratio: kcat/Km for MMP-9 divided by kcat/Km for MMP-7: MMP-9 substrates
T1 construct: a recombinant form of the catalytic domain of MMP-9 expressed in HEK 293 cells; made in house; host or cells: HEK 293 cells
Experimental: (§1) In order to measure the selectivity of individual substrates for one metalloproteinase over another, representative polypeptides from the selected phage were synthesized and their rate of hydrolysis by several matrix metalloproteinases was determined. In some cases these representative polypeptide sequences contained an amino-terminal serine (S) and glycine (G) and/or a carboxyl-terminal threonine (T) and alanine (A) since these residues were used in the construction of the phage substrate library, although one skilled in the art will understand that other amino acid residues could be substituted at these positions. The kinetic parameters of substrate hydrolysis were measured using a fluorescamine incorporation assay that has been described previously (Ding et al., PNAS, 92:7627-7631 (1995); Coombs et al., Chem. and Biol. 5:475-488 (1998); Fields et al., J. Biol. Chem., 262:6221-6226 (1987); Netzel-Arnett., et al. J. Biol. Chem., 266:6747-6755 (1991)).
(§2) Briefly, individual metalloproteinases were incubated with the individual polypeptide substrates at concentrations ranging from 100-800 µM. At selected time points the reactions were stopped by the addition of 1,10 phenanthroline. Polypeptide hydrolysis was determined by the addition of fluorescamine followed by detection at an excitation wavelength of 355 nm and an emission wavelength of 460 nm. The data were transformed to double reciprocal plots (1/[S] vs 1/vi) to determine Km and kcat. In some cases Km and kcat could not be determined individually, but the specificity constant, kcat/Km, was derived by the equation: […] (Netzel-Arnett, supra, and Zumla et al., J. Immunol. Methods 149:69-76 (1992)).
(§3) The selectivity ratio of each polypeptide substrate was calculated by dividing the kcat/Km value for one matrix metalloproteinase by the kcat/Km value for the other matrix metalloproteinases that were tested. […] In many cases the polypeptide substrates are selective for one matrix metalloproteinase compared to several other matrix metalloproteinases.
(§4) The kinetic parameters of substrate hydrolysis were measured using a fluorescamine incorporation assay that has been previously described (Ding et al., PNAS, 92:7627-7631 (1995); Coombs et al., Chem. and Biol. 5:475-488 (1998); Fields et al., J. Biol. Chem., 262:6221-6226 (1987); Netzel-Arnett., et al. J. Biol. Chem., 266:6747-6755 (1991)). Briefly, MMP-2, MMP-9, MMP-7, or MMP-13 were incubated with individual peptide substrates at concentrations ranging from 100-800 μM in 50 mM Tris, pH 7.5, 100 mM NaCl, 10 mM CaCl2, 50 μM ZnCl2. At selected time points the reactions were stopped by the addition of 1,10-phenanthroline. Peptide hydrolysis was determined by the addition of fluorescamine followed by detection at λex 355 nm and λem 460 nm. The data were transformed to double reciprocal plots (1/[S] vs 1/vj) to determine Km and kcat. […] A double recipricol plot of the hydrolysis of peptide B 74 is shown as a representative plot (FIG. 4).
The Michaelis constant (Km) and first-order rate constant of substrate peptide turnover (kcat) were measured by incubating a range of each peptide with MMP-9. Peptide hydrolysis was measured by incorporation of fluorescamine onto newly formed amino-termini as previously described. From these measurements, kcat and Km were derived for each peptide using double-reciprocal plots of 1/[S] vs 1/vj. Among the peptides, the kcat values ranged from 9 s^−1 to 703 and Km values were generally in the high micromolar to low millimolar range.

MT1-MMP = MT1-MMP (Homo sapiens, UniProt P50281); experiment: Peptide substrate hydrolysis kinetics, selectivity between MT1-MMP and MMP-9; conditions: MT1-MMP substrates
Experimental: as §1, §2, §3
Polypeptide substrates for Membrane type-Matrix Metalloproteinase 1 (MT1-MMP) were identified using substrate phage display as described for MMP-2 and MMP-9. Synthetic peptides that are analogous to the phage sequences were used to quantitate the level of selectivity between MT1-MMP and MMP-9 (see Table II).

MMP-2 = target: T2, MMP-2 (Homo sapiens, UniProt P08253); experiment: Peptide substrate hydrolysis kinetics, fluorescamine incorporation assay (kcat/Km, selectivity ratio); conditions: MMP-2 substrates
T2 construct: the cDNA encoding the catalytic domain of MMP-2 was generated by PCR; made in house; host or cells: HEK 293 cells
Experimental: as §1, §2, §3, §4

[1] = hydrolysis by MMP-9, Ala instead of Leu at P1′

T1 sequence (P14780 94-444 limits assumed): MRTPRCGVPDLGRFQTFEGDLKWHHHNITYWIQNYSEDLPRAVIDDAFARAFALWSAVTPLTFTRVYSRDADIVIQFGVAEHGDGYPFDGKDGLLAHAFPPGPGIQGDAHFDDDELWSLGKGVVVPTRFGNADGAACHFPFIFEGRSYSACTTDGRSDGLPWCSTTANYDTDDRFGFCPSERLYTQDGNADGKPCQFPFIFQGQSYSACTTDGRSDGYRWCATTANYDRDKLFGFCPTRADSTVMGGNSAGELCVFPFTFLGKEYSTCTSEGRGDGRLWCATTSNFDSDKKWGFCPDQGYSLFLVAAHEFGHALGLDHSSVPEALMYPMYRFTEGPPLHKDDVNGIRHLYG
T2 sequence (P08253 110-465 limits assumed): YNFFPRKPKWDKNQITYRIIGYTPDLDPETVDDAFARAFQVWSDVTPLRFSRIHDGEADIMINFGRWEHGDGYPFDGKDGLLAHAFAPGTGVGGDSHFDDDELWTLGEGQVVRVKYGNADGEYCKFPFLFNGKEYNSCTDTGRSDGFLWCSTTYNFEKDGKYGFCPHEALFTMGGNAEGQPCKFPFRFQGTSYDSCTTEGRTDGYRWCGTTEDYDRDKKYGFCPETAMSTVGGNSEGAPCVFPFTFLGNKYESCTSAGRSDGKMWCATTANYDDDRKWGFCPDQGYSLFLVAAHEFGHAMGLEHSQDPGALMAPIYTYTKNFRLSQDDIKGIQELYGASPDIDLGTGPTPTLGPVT

For “A11: MMP-9 selective substrate peptide from phage clone A11, sequence S-G-K-I-P-R-T-L-T-A (Table V) (KIPRTLTA)”, the “selectivity ratio: kcat/Km for MMP-9 divided by kcat/Km for MMP-1” value (MMP-9) was 3 and the “selectivity ratio: kcat/Km for MMP-9 divided by kcat/Km for MMP-7” value (MMP-9) was 10.
In the case of “B96: MT1-MMP selective substrate peptide from phage clone B96, sequence S-G-L-I-S-H-S-I-T-A (Table V) (LISHSITA)”, the “selectivity ratio: kcat/Km for MT1-MMP divided by kcat/Km for MMP-9” value (MT1-MMP) is reported as 5.
With “A34: MMP-2 selective substrate peptide from phage clone A34, sequence N-R-Y-S-S-L-T-A (NRYSSLTA)” the “selectivity ratio: kcat/Km for MMP-2 divided by kcat/Km for MMP-1” value (MMP-2) was 24, the “selectivity ratio: kcat/Km for MMP-2 divided by kcat/Km for MMP-7” value (MMP-2) was 84 and the “selectivity ratio: kcat/Km for MMP-2 divided by kcat/Km for MMP-9” value (MMP-2) was 40.
For “B175: MT1-MMP selective substrate peptide from phage clone B175, sequence S-G-R-A-M-H-M-Y-T-A (Table V) (RAMHMYT)”, the “selectivity ratio: kcat/Km for MT1-MMP divided by kcat/Km for MMP-9” value (MT1-MMP) was 19.
“A176: MT1-MMP selective substrate peptide from phage clone A176, sequence S-G-R-S-E-N-I-R-T-A (Table V) (RSENIRT)” was tested, and the “selectivity ratio: kcat/Km for MT1-MMP divided by kcat/Km for MMP-9” value (MT1-MMP) was 73.
“C15: MMP-9 selective substrate peptide from phage clone C15, sequence S-G-K-G-P-R-Q-I-T-A (Table V) (KGPRQITA)” was tested, and the “selectivity ratio: kcat/Km for MMP-9 divided by kcat/Km for MMP-1” value (MMP-9) was 12 and the “selectivity ratio: kcat/Km for MMP-9 divided by kcat/Km for MMP-7” value (MMP-9) was 14.
“B49: MMP-2 selective substrate peptide from phage clone B49, sequence L-R-L-A-A-I-T-A (LRLAAITA)” was tested, and the “selectivity ratio: kcat/Km for MMP-2 divided by kcat/Km for MMP-1” value (MMP-2) was 13, the “selectivity ratio: kcat/Km for MMP-2 divided by kcat/Km for MMP-7” value (MMP-2) was 6 and the “selectivity ratio: kcat/Km for MMP-2 divided by kcat/Km for MMP-9” value (MMP-2) was 14.
With “A3: MMP-2 selective substrate peptide from phage clone A3, sequence A-K-P-R-A-L-T-A (AKPRALTA)” the “selectivity ratio: kcat/Km for MMP-2 divided by kcat/Km for MMP-1” value (MMP-2) was 14, the “selectivity ratio: kcat/Km for MMP-2 divided by kcat/Km for MMP-7” value (MMP-2) was 21 and the “selectivity ratio: kcat/Km for MMP-2 divided by kcat/Km for MMP-9” value (MMP-2) was 2.
With “B37: MMP-2 selective substrate peptide from phage clone B37, sequence A-N-I-S-D-L-T-A (ANISDLTA)” the “selectivity ratio: kcat/Km for MMP-2 divided by kcat/Km for MMP-1” value (MMP-2) was 58, the “selectivity ratio: kcat/Km for MMP-2 divided by kcat/Km for MMP-7” value (MMP-2) was 17 and the “selectivity ratio: kcat/Km for MMP-2 divided by kcat/Km for MMP-9” value (MMP-2) was 71.
In the case of “C9: MMP-2 selective substrate peptide from phage clone C9, sequence R-S-L-S-R-L-T-A (RSLSRLTA)”, the “selectivity ratio: kcat/Km for MMP-2 divided by kcat/Km for MMP-1” value (MMP-2) is reported as 52, the “selectivity ratio: kcat/Km for MMP-2 divided by kcat/Km for MMP-7” value (MMP-2) is reported as 35 and the “selectivity ratio: kcat/Km for MMP-2 divided by kcat/Km for MMP-9” value (MMP-2) is reported as 198.
In the case of “AC-SGKIPRTATA-NH2 (Ac-SGKIPRTATA-NH2) [Clone A11m2]”, the kcat/Km ratio (MMP-9; hydrolysis by MMP-9) is reported as 2,000 M^−1s^−1, the “effect of substitution on kcat and Km” value (MMP-9; [1]) is reported as “deleterious effects on both kcat and Km” and the “reduction of kcat/Km ratio relative to peptide A11” value (MMP-9; [1]) is reported as ~30 fold.
With “B74: MMP-2 selective substrate peptide from phage clone B74, sequence E-S-L-A-Y-Y-T-A (ESLAYYTA)” the “selectivity ratio: kcat/Km for MMP-2 divided by kcat/Km for MMP-1” value (MMP-2) was 140, the “selectivity ratio: kcat/Km for MMP-2 divided by kcat/Km for MMP-7” value (MMP-2) was 354 and the “selectivity ratio: kcat/Km for MMP-2 divided by kcat/Km for MMP-9” value (MMP-2) was 108.
For “A6: MMP-9 selective substrate peptide from phage clone A6, sequence S-G-P-R-A-V-S-T-T-A (Table V) (PRAVST)”, the “selectivity ratio: kcat/Km for MMP-9 divided by kcat/Km for MMP-1” value (MMP-9) was 5 and the “selectivity ratio: kcat/Km for MMP-9 divided by kcat/Km for MMP-7” value (MMP-9) was 47.
“A21: MMP-2 selective substrate peptide from phage clone A21, sequence H-M-H-K-A-L-T-A (HMHKALTA)” was tested, and the “selectivity ratio: kcat/Km for MMP-2 divided by kcat/Km for MMP-9” value (MMP-2) was 8.
For “A13: MMP-2 selective substrate peptide from phage clone A13, sequence G-A-V-S-W-L-L-T (GAVSWLLT)”, the “selectivity ratio: kcat/Km for MMP-2 divided by kcat/Km for MMP-1” value (MMP-2) was 28, the “selectivity ratio: kcat/Km for MMP-2 divided by kcat/Km for MMP-7” value (MMP-2) was 13 and the “selectivity ratio: kcat/Km for MMP-2 divided by kcat/Km for MMP-9” value (MMP-2) was 15.
